The target of the experiment is human G-CSF receptor, class 2 (plasmid pHQ2), form lacking the transmembrane domain (human). Briefly: saturation binding of murine 125I-G-CSF to COS cells transfected with pHQ2, Scatchard plot.

Turning to “mouse recombinant G-CSF (granulocyte colony-stimulating factor) (from UniProt P09920) (ligand)”, the Kd was 0.44 nM and the binding sites /cell is 6000 /cell.

As usually defined, the Kd is a measure of binding affinity in units of concentration.

The values above are taken from patent US5574136.
